Read-outs that look alike come from different tables or passages of the source. Numbered stars: 1 amine (or outer) side, 2 acyl side, 3 side chain; on linkers, the order of the positions; unused ones are H or OH. Square brackets hold non-standard residues; d marks the D form. Side chains are listed from the residue outwards. Ends that are not written are not given here. * marks the point of attachment. γGlu = O=C(O)[C@H](CCC(=O)[*:2])N[*:1]; Stearoyl = CCCCCCCCCCCCCCCCCC(=O)*; Palmitoyl = CCCCCCCCCCCCCCCC(=O)*; Aib = CC(C)(N)C(=O)O

We go through eight molecules from patent publication US20150322129A1 (Sanofi, published 2015).

Holding throughout (experiment): cell-based or functional assay
Experiment [1] deals with T1, human GLP-1 receptor (human, UniProt P43220 24-463).
The target of experiment [2] is T2, human glucagon receptor (human, UniProt P47871 26-477).
T2 sequence (P47871 26-477): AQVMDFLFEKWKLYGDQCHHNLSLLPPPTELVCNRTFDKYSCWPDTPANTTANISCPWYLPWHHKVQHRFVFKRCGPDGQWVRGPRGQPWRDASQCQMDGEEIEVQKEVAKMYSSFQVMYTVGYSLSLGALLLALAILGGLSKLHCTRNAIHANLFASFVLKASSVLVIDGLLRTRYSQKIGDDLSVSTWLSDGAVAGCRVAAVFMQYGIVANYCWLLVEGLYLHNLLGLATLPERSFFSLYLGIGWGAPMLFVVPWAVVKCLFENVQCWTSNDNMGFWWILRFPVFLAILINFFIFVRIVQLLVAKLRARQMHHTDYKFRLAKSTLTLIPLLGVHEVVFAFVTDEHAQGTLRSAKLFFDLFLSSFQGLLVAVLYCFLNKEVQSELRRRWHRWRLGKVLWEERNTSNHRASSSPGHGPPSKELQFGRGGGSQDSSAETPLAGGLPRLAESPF
The target of experiment [3] is T3, human GIP receptor (human, UniProt P48546 22-466).
T3 sequence (looked up): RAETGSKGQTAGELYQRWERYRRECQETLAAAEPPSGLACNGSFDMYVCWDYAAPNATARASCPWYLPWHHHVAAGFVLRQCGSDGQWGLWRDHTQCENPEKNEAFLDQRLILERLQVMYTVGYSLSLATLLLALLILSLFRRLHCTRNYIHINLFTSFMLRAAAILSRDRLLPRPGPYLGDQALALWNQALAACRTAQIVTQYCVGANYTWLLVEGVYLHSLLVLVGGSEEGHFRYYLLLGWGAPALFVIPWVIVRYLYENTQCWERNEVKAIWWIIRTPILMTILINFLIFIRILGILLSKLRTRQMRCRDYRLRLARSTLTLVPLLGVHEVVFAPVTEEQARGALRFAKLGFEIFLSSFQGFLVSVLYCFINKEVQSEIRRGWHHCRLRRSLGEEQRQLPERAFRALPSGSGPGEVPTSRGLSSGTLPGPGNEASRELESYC

For experiment [4], the target named is T1, human GLP-1 receptor. This is another data set of the same source.
Experiment [5] deals with T2, human glucagon receptor. This is another data set of the same source.
Experiment [6] has as its target T3, human GIP receptor. The source holds these as a separate data set.

B1: SEQ ID NO: 25 (peptide)
peptide: H-H[dS]HGTFTSDLSKQK([γGlu-Stearoyl])EEEAVRLFIEWLKAGGPSSGAPPPS-NH2
SMILES: CCCCCCCCCCCCCCCCCC(=O)N[C@@H](CCC(=O)NCCCC[C@H](NC(=O)[C@H](CCC(N)=O)NC(=O)[C@H](CCCCN)NC(=O)[C@H](CO)NC(=O)[C@H](CC(C)C)NC(=O)[C@H](CC(=O)O)NC(=O)[C@H](CO)NC(=O)[C@@H](NC(=O)[C@H](Cc1ccccc1)NC(=O)[C@@H](NC(=O)CNC(=O)[C@H](Cc1c[nH]cn1)NC(=O)[C@@H](CO)NC(=O)[C@@H](N)Cc1c[nH]cn1)[C@@H](C)O)[C@@H](C)O)C(=O)N[C@@H](CCC(=O)O)C(=O)N[C@@H](CCC(=O)O)C(=O)N[C@@H](CCC(=O)O)C(=O)N[C@@H](C)C(=O)N[C@H](C(=O)N[C@@H](CCCNC(=N)N)C(=O)N[C@@H](CC(C)C)C(=O)N[C@@H](Cc1ccccc1)C(=O)N[C@H](C(=O)N[C@@H](CCC(=O)O)C(=O)N[C@@H](Cc1c[nH]c2ccccc12)C(=O)N[C@@H](CC(C)C)C(=O)N[C@@H](CCCCN)C(=O)N[C@@H](C)C(=O)NCC(=O)NCC(=O)N1CCC[C@H]1C(=O)N[C@@H](CO)C(=O)N[C@@H](CO)C(=O)NCC(=O)N[C@@H](C)C(=O)N1CCC[C@H]1C(=O)N1CCC[C@H]1C(=O)N1CCC[C@H]1C(=O)N[C@@H](CO)C(N)=O)[C@@H](C)CC)C(C)C)C(=O)O
Turning to B1, the “EC50 hGLP-1R (cAMP formation)” value in experiment [1] and in experiment [4] was 0.0081 nM each time. Moreover, the “EC50 hGlucagon-R (cAMP formation)” value in experiment [2] and in experiment [5] was 0.0399 nM throughout. Moreover, the “EC50 hGIP-R (cAMP formation)” value in experiment [3] was 0.407 nM. Further, the “EC50 hGIP-1 (cAMP formation)” value in experiment [6] was 0.407 nM.

B2: SEQ ID NO: 7 (peptide)
peptide: H[Aib]HGTFTSDLSKQK([γGlu-Stearoyl])EEEAVRLFIEWLKAGGPSSGAPPPS-NH2
With B2, the “EC50 hGLP-1R (cAMP formation)” value in experiment [1] and in experiment [4] was 0.0065 nM each time. For the same molecule, the “EC50 hGlucagon-R (cAMP formation)” value in experiment [2] and in experiment [5] was 0.0058 nM in each case. Further, the “EC50 hGIP-R (cAMP formation)” value in experiment [3] was 0.0256 nM. For the same molecule, the “EC50 hGIP-1 (cAMP formation)” value in experiment [6] turned out to be 0.0256 nM.

B3: SEQ ID NO: 34 (peptide)
peptide: H-H[Aib]HGTFTSDLSKQK(Ac)EEEAVRLFIEWLKAGGPSSGAPPPS-NH2
For B3, the “EC50 hGLP-1R (cAMP formation)” value in experiment [4] was found to be 0.0007 nM. The “EC50 hGlucagon-R (cAMP formation)” value in experiment [5] was determined as 0.829 nM. For the same molecule, the “EC50 hGIP-1 (cAMP formation)” value in experiment [6] is 0.0254 nM.

B4: SEQ ID NO: 14 (peptide)
peptide: H[dS]HGTFTSDLSKQK([γGlu-Palmitoyl])EEEAVRLFIEWLKAGGPSSGAPPPS-NH2
As for B4, the “EC50 hGLP-1R (cAMP formation)” value in experiment [1] and in experiment [4] was 0.0041 nM each time. Moreover, the “EC50 hGlucagon-R (cAMP formation)” value in experiment [2] and in experiment [5] was 0.0584 nM each time. The “EC50 hGIP-R (cAMP formation)” value in experiment [3] was 0.437 nM. Also, the “EC50 hGIP-1 (cAMP formation)” value in experiment [6] was 0.437 nM.

B5: SEQ ID NO: 11 (peptide)
peptide: H[Aib]HGTFTSDLSKQK([γGlu-γGlu-Palmitoyl])EEEAVRLFIEWLKAGGPSSGAPPPS-NH2
With B5, the “EC50 hGlucagon-R (cAMP formation)” value in experiment [2] and in experiment [5] was 0.0089 nM in each case. Besides, the “EC50 hGIP-R (cAMP formation)” value in experiment [3] was 0.0079 nM. Further, the “EC50 hGIP-1 (cAMP formation)” value in experiment [6] came to 0.0079 nM.

B6: SEQ ID NO: 12 (peptide)
peptide: H[Aib]HGTFTSDLSKQK([γGlu-Palmitoyl])EEEAVRLFIEWLKAGGPSSGAPPPS-NH2
As for B6, the “EC50 hGLP-1R (cAMP formation)” value in experiment [1] and in experiment [4] was 0.0033 nM in each case. Further, the “EC50 hGlucagon-R (cAMP formation)” value in experiment [2] and in experiment [5] was 0.0128 nM in each case. For the same molecule, the “EC50 hGIP-R (cAMP formation)” value in experiment [3] turned out to be 0.0088 nM. Moreover, the “EC50 hGIP-1 (cAMP formation)” value in experiment [6] came out at 0.0088 nM.

B7: SEQ ID NO: 35 (peptide)
peptide: H[dS]HGTFTSDLSKQK(Ac)EEEAVRLFIEWLKAGGPSSGAPPPS-NH2
In the case of B7, the “EC50 hGLP-1R (cAMP formation)” value in experiment [4] is 0.0004 nM. For the same molecule, the “EC50 hGlucagon-R (cAMP formation)” value in experiment [5] stood at 2.86 nM. Besides, in experiment [6], the “EC50 hGIP-1 (cAMP formation)” value came to 4.04 nM.

B8: SEQ ID NO: 13 (peptide)
peptide: H[dS]HGTFTSDLSKQK([γGlu-γGlu-Palmitoyl])EEEAVRLFIEWLKAGGPSSGAPPPS-NH2
Consider B8, for which the “EC50 hGlucagon-R (cAMP formation)” value in experiment [2] and in experiment [5] was 0.0225 nM throughout. The “EC50 hGIP-R (cAMP formation)” value in experiment [3] was 0.079 nM. In experiment [6], the “EC50 hGIP-1 (cAMP formation)” value was found to be 0.079 nM.
